Data on 167 variants can be found in the RNAGym collection of RNA variant scans (doi:10.7554/elife.90254).

To fix the notation:
B1: OR4K15 (parent)
chain: GUUAACGGUCAUAGGCCAUGGAAACUAGGAGCACCAUUUCGCUGCCAGUGAAGAAAUGAACAAAGAAAAUCUGGGCCAGGCAGGCAUCAAAAGAAAUAGUCUUGCGCUCAACCAGAAAGUCUGUAAUCAUUUUAAGGGUA

This data set covers variants of B1. The data set can be described thus: self-cleavage, relative activity (ratio to wild type); higher = more cleavage; in vitro, sequencing; the parent is a self-cleaving ribozyme.
Take G21A A98U: the self-cleavage amounted to 2.32. Take G1A A64G: the self-cleavage was determined as 2.27. The result for A55U A126G reads 1.47; that for A59G A68G, 1.22; that for A126U U131C, 1.84.

On to A13G A62G, for which the self-cleavage stood at 1.25. The result for A27G U127A reads 1.58; that for U38C A68G, 0.84. Take G53A A60G: the self-cleavage came to 1.53. The value for U49A U122C was 0.56; that for A64G G106U was 0.02; that for A30G A126U was 0.87.

For A54G G104A, the self-cleavage was determined as 0.09. The value for A110U C113U was 0.02. G50A: the self-cleavage came out at 1.68. The result for A36G U38C reads 1.19; that for A69G G123A, 1.43; that for G15A A56G, 1.45.

Regarding A11U A118G, the self-cleavage was determined as 0.59. The value for A55U A56C was 2.18; that for A30G A66G was 1.21. The result for A96G U131G reads 0.85; that for U37C A114U, 0.15; that for G7A U19C, 1.14.

With G75A G119A, the self-cleavage amounted to 0.17.

Consider U100C A135G, for which the self-cleavage turned out to be 1.74. As to A24G U124C, the self-cleavage came out at 0.73. For A24G U57G, the self-cleavage was 0.4. The result for A55C A110G reads 1.02; that for U108C U139A, 0.04; that for U70G U122A, 1.34. The result for C32A A63G reads 1.46; that for C46U A59G, 1.81; that for A60G U100A, 0.52. As for A22G A68G, the self-cleavage turned out to be 1.31.

Consider A96U U108C, for which the self-cleavage was 0. The result for A52G A129C reads 0.65; that for G8A A60G, 1.53. The value for A114G A118U was 0.04. The value for A117G U131C was 1.15; that for A62U C85U was 1.31; that for A60G A98G was 0.55. Turning to G21A A27U, the self-cleavage turned out to be 1.32.

Take A63G A118G: the self-cleavage is 0.83. The result for C34A A52G reads 1.28. The value for A47G A86U was 2.98; that for A24G A140U was 0.89. The result for A18G A67G reads 1.03; that for A27U A118G, 1.21. Consider U38G C113U, for which the self-cleavage amounted to 0.07. The value for A62G A98G was 0.4. Consider U37A A68G, for which the self-cleavage worked out at 0.51. The value for A64G U131C was 1.2; that for A52U U132C was 1.06; that for A89U A118C was 0.7. The value for A67G A114U was 0.03. The result for G41A reads 1.67; that for C16A A60G, 0.51; that for A23G U72C, 0.3. Take A89G A118C: the self-cleavage is 0.01. For C16U A90G, the self-cleavage was determined as 1.55. The value for A13G U72A was 0.23; that for C6U U120C was 0.33. In the case of U97C U133C, the self-cleavage stood at 1.53. The result for A47U U97A reads 1.74; that for U87C U133G, 1.67; that for A52G C88A, 1.78. The result for A67G U108A reads 0.02.

As for A89G U139A, the self-cleavage was found to be 1.67.

As to A33G U43C, the self-cleavage stood at 0.71. The result for A62G U124C reads 0.94; that for A47G A68U, 1.17. The result for U127C A135G reads 0.83; that for A78G A116G, 0.15; that for U70C A91U, 1.07. The value for G75A A116U was 0.05. In the case of U70C A94U, the self-cleavage was determined as 0.2. Regarding A54U U100A, the self-cleavage came to 0.59. The result for A94G U127C reads 1.04; that for A55U U133A, 1.58; that for U39C A54G, 0.69. The result for U12C U139C reads 1.41; that for A23C A96G, 1.33; that for A33C A66U, 1.52. The value for A4G A60U was 1.76. With C85A C109A, the self-cleavage was found to be 0.19. The result for U38G A91G reads 0.38; that for A51C A67G, 0.66. The value for U2C A24U was 1.45.

In the case of A47G U127A, the self-cleavage worked out at 1.33. The result for A64G A68G reads 1.54; that for U49A G79A, 0.12. For the variant U2A A62G, the self-cleavage was found to be 1.23.

In the case of A18G U130A, the self-cleavage stood at 1.84. The result for U19C A54G reads 1.21; that for U19C A54C, 1.2.

Consider U26C U43C, for which the self-cleavage worked out at 0.54. The value for C42A was 0.45.

Consider A30G A89U, for which the self-cleavage amounted to 1.09.

As to U43A A90G, the self-cleavage came to 0.76. The result for U38C A78C reads 0.46; that for U39A A126C, 0.87.

G65A U108G: the self-cleavage amounted to 0.01. As for A94U U120C, the self-cleavage was found to be 1.1. The result for A94G A125G reads 0.75; that for U43C A110G, 0.15; that for A51G G65A, 1.12.

G29U A90G: the self-cleavage was found to be 1.1. The value for A36G A92U was 0.99; that for A64G U120C was 1.13. The value for A94U U97G was 1.52; that for G44A A63G was 0.71; that for A82G A117C was 0.06. The value for A60G G83A was 1.3. With A54C A60U, the self-cleavage was 1.33. A52U U124C: the self-cleavage was 0.48. The result for A90U U120A reads 1.85; that for A18G C61U, 1.18. For the variant A22G U102C, the self-cleavage stood at 1.56. The result for C32A A90G reads 1.27.

On to A33U U87A, for which the self-cleavage was found to be 2.04. The result for A30G A117C reads 0.61. In the case of U133C A140U, the self-cleavage turned out to be 2.09. The value for U38A A114G was 0.96; that for A5U U100G was 1.03; that for A36U A111G was 0.02. For A18G U132G, the self-cleavage is 1.71. U38C U131C: the self-cleavage is 1.33. In the case of A18U U39G, the self-cleavage stood at 0.98. The value for A68G A86G was 1.41; that for G31A A69U was 2.21. G104C: the self-cleavage is 0.02. Turning to U102C C113A, the self-cleavage was found to be 0.28. The value for A33U A111G was 0.03; that for G7A A90G was 1.26; that for G1A U102G was 1.23.

Consider A110U A118U, for which the self-cleavage was determined as 0.75.

Turning to A67G C76U, the self-cleavage is 0.07. For the variant A111U U120C, the self-cleavage was found to be 0.03. The value for U39C A52C was 1.78.

For A114G U133C, the self-cleavage was found to be 0.12. The value for U19C A110G was 0.08; that for A18G U19G was 0.71; that for G79U A116U was 0.03. The value for A90U G106A was 0; that for U72C A98G was 0.03; that for A51U G83A was 2.1. With A13G A89G, the self-cleavage was 1.31.

Consider A59G U103A, for which the self-cleavage is 0.62. The value for A5G G73A was 0.21; that for U26C U120C was 0.85; that for A52G A126G was 0.47.

Take A18U A96G: the self-cleavage was determined as 1.62.

In the case of U12A A111G, the self-cleavage was found to be 0.08. The result for A78U A82U reads 0.15; that for A52G G73A, 0.11; that for U19A, 1.16.

With A24G C128U, the self-cleavage is 0.76. The value for A33U A126G was 1.4; that for A78G U108A was 0.03. As for U102C C109A, the self-cleavage is 0.3. The value for A62G U103C was 0.98; that for A5G G29C was 0.82; that for U43A U120A was 1.57. The result for A56G A125G reads 0.51; that for A64G U127A, 2.12; that for A47U A55G, 0.6.
